Each block holds one molecule with its values, some of them ahead of it.
Columns and labels:
[1] = tested on: MART reactive T-cells; test: Induction of MART-1 specific CTLs in PBMC cultures, MART-1/HLA-A2 tetramer staining; format: cell-based, human; details: KRN7000 pulsed on MART-1 mRNA transfected DC, versus vehicle; FIG. 15b
Procedure: (§1) 100 ng/ml of KRN7000 was pulsed onto the CD40L base process DCs immediately post electroporation in combination with 500 U/ml IFN-γ and 1 μg/ml PGE2, for 24 hrs of culture.
(§2) DCs were generated as described above, employing the ‘CD40L base process’, and loaded with mRNA encoding MART-1. Post electroporation, DCs were incubated with KRN7000, IFN-γ and PGE2. DCs and PBMCs were co-cultured at a 1:10 ratio in the presence of 20 U/ml IL-2. PBMCs were restimulated three times under the same conditions, and the frequency of CTL induction determined by staining with MART-1/A2 tetramers, and the expansion of NKT-cells enumerated using KRN7000/CD1d tetramers by FACS.

[2] = tested on: NKT-cells; test: Expansion of NKT-cells in PBMC cultures, CD1d/KRN7000 tetramer staining; format: cell-based, human; details: 100 ng/ml KRN7000 pulsed on MART-1 mRNA-loaded CD40L base process DCs, versus vehicle; FIG. 15a
Procedure: as §1, §2

[3] = tested on: DCs; test: Transwell migration assay of DCs to lymph node chemokines CCL19 and 21; format: cell-based, human; details: 1 μg/ml PGE2 in addition to IFN-γ, CD40L mRNA transfected DCs; FIG. 8
Procedure: Chemotaxis of DCs was measured by migration through a 8 μm pore size polycarbonate filter in 24 well transwell chambers (coming Costar, Acton, MA). 5% human AB serum in Iscoves modified Dulbecco's medium or AIM-V medium containing 3-300 ng/ml CCL19, 5-250 ng/ml CCL21, a combination of both or medium alone was added to the lower chamber. 1−5×10^5 DCs in 0.1 ml were added to the upper chamber and incubated for 2-3 hours at 37° C. Lower chamber harvested into 5 ml tubes (BD Biosciences) and re-suspended in 0.1 ml PBS and viable cell counts undertaken using trypan blue.

[4] = tested on: DCs; test: IL-12p70 and IL-10 secretion by DCs undergoing maturation (ELISA of culture supernatants); format: cell-based, human
Procedure: Human PBMCs were isolated from Leukapheresis collections from healthy volunteers provided by Life Blood (Memphis, Tenn.). PBMCs were prepared by Ficoll-Histopaque density centrifugation and washed four times in PBS at room temperature. 2×10^8 PBMCs were re-suspended in 30 ml AIM-V medium and allowed to adhere to […] plastic flasks for 2 hours at 37° C. Non-adherent cells were removed and remaining cells cultured in X-VIVO 15 medium, supplemented with GM-CSF (1000 U/ml) and IL-4 (1000 U/ml), for 5-6 days at 37 C, 5% CO2.
Prior to electroporation, DCs were harvested and washed in PBS and then re-suspended in chilled Viaspane (Barr Laboratories) at 4×10^7/ml in 0.5 ml or 2.5×10^7/ml in 0.2 ml and placed on ice. DCs were mixed with mRNA (1 or 2 μg/10^6 for mRNA encoding antigen and 4 μg/10^6 for CD40L mRNA) and placed in a 4 mm gap electroporation cuvette and electroporated using Biorad apparatus. Immediately after electroporation, DCs were washed in X-VIVO 15 medium and finally re-suspended in X-VIVO 15 supplemented with GM-CSF (800 U/ml) and IL-4 (500 U/ml) at 1×10^6/ml and cultured for either 4 or 24 hours at 37° C. in low adherence six well plates (BD Biosciences, Franklin Lakes, N.J.). Additional maturation stimuli, described below, were also added at this point.
Following electroporation, DCs transfected with CD40L mRNA were treated with IFN-γ (1000 U/ml) or TNF-α (10 ng/ml) or a combination of IFN-γ and PGE2 (1 μg/ml). By comparison, immature DCs were transfected with various antigen-encoding mRNAs and were then treated with a “cytokine cocktail” comprising of TNF-α (10 ng/ml), IL-1β (10 ng/ml), IL-6 (100 ng/ml) and PGE2 (1 μg/ml) or soluble CD40L (200 ng/ml) plus enhancer (1 μg/ml) with either simultaneous or sequential addition of 1000 U/ml IFN-γ.
The method as laid out by BD Pharmingen for IL-12 and IL-10 ELISA sets (BD Pharmingen) using BD Opt EIA reagent set B pH 9.5. Briefly, ELISA plates (BD Biosciences) were coated with anti-IL-12p70 or anti-IL-10 ELISA capture antibody in coating buffer for 24 hours at 4° C. Plates underwent blocking with 200 μl per well 10% FCS/PBS for one hour prior to the addition of standards (BD Pharmingen) and supernatant samples, in duplicate, at 100 μl per well and incubated at room temperature for 2 hours. Plates were washed and anti-cytokine detection antibody added, incubated for one hour, the plates washed and solutions replaced with 100 μl of streptavidin-HRP and further incubated for one hour at room temperature. […] Plate analysis undertaken using Bio-Tek instruments ELx800 plate reader with KC junior software (Winooski, Vt.). […] Because the assays were set up so that 1 ml corresponds to 10^6 DCs, the results can also be expressed as number of picograms/10^6 DCs. […]

[5] = target: human CD40L protein translated from transfected CD40L mRNA (CD40L WT, >400 nucleotide polyA tail) (human) (UniProt P29965); test: cell-based or functional assay
[6] = target: human CD40 (the receptor for CD40L) on monocyte-derived dendritic cells (human) (UniProt P25942); test: cell-based or functional assay
Chain of UniProt P25942 (P25942 21-277 limits assumed): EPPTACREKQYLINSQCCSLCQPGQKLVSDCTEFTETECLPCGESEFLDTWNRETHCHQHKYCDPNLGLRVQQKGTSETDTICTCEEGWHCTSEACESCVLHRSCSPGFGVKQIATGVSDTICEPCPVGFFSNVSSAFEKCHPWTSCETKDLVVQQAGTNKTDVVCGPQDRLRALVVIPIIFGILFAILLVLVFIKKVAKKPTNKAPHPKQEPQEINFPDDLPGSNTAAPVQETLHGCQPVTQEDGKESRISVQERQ

Molecule: CCCCCCCCCCCCCCCCCCCCCCCCCC(=O)N[C@@H](CO[C@H]1O[C@H](CO)[C@H](O)[C@H](O)[C@H]1O)[C@H](O)[C@H](O)CCCCCCCCCCCCCC [KRN7000, (2S,3S,4R)-1-O-(alpha-D-galactopyranosyl)-2-(N-hexacosanoylamino)-1,3,4-octadecanetriol]
frequency of MART reactive T-cells [1]: significantly increases the frequency of MART reactive T-cells
frequency of NKT-cells in PBMC cultures [2]: increase the frequency of NKT-cells

Molecule: CCCCC[C@H](O)/C=C/[C@H]1[C@H](O)CC(=O)[C@@H]1C/C=C\CCCC(=O)O [PGE2]
DC migration [3]: enables the maturing DCs to migrate

Molecule: TNF-α
IL-12 production ([4]; 10 ng/ml TNF-α substituted for IFN-γ, CD40L mRNA transfected DCs, FIG. 5b): supports IL-12 production, but at reduced levels

IL-12p70 (pg/ml), "Cocktail" matured and reactivated DCs co-cultured with HeLa/>400 polyA + IFN-γ + 24-31 [5]: 2.5 pg/mL
IL-12p70 release from CD40L-mRNA-transfected DCs cultured with IFN-γ and 10 or 50 µg/ml blocking anti-CD40L antibody [5]: 50%
Molecule: blocking CD40L monoclonal antibody 24-31 (eBioscience)

IL-12p70 (pg/ml), "Cocktail" matured and reactivated DCs co-cultured with HeLa/>400 polyA + IFN-γ [6]: 26.3 pg/mL
IL-12p70 (pg/ml), immature DCs co-cultured with HeLa/>400 polyA + IFN-γ [6]: 372 pg/mL
Molecule: human CD40L protein translated from transfected CD40L mRNA (CD40L WT, >400 nucleotide polyA tail) (from UniProt P29965 1-261) (ligand)

Molecule: pCR2.1 CD40L WT Delta X-E: CD40L RNA transcribed from plasmid modified by removal of XbaI-EcoRV fragment with three cryptic ATG codons (sense GCATGATCGAAACATACAACC; RNA transcript of DNA sequence, chemistry not fully specified)
induction of IL-12 expression by transfected DCs ([4]; two independent DC transfection experiments, about 20 hrs post transfection, FIG. 18): performed better than the current CD40L reference standard

B1: IFN-γ: IFN-γ purchased from R&D Systems, first maturation signal (protein, listed as Homo sapiens)
chain: MKYTSYILAFQLCIVLGSLGCYCQDPYVKEAENLKKYFNAGHSDVADNGTLFLGILKNWKEESDRKIMQSQIVSFYFKLFKNFKDDQSIQKSVETIKEDMNVKFFNSNKKKRDDFEKLTNYSVTDLNVQRKAIHELIQVMAELSPAAKTGKRKRSQMLFQGRRASQ
IFN-γ required to support optimal induction of IL-12p70 ([4]; DCs transfected with 4 μg CD40L mRNA per million cells, FIG. 4): at least 100 U/ml
IL-10 production ([4]; IFN-γ versus TNF-α as co-maturation factor, CD40L mRNA transfected DCs, FIG. 5c): lower levels of IL-10 production than does TNF-α

Source: US20080145931A1, “Mature Dendritic Cell Compositions and Methods of Culturing Same” (Argos Therapeutics, Inc., priority 2004, published 2008)
